The text below walks through data of the DeepSol protein solubility set.

The series in a line: soluble on expression in E. coli; label from the status in PepcDB or PDB records.
On to “MAFPRRLLSLSLRVKDLEAALFFYRDLLGLKVEADPPRYRLFPEGRGFLLELLHDPEAPLRPYPSLGLYHFALLLPHRKALAGVFRRLLEAGAHFEGAADHGVSEALYFRDPEGNGLELYRDRPKEAWPKGPLMFTAPLNLEKLLAENPDPTPLPPETLLGHLHLHVEDLAAAEAFFNGKLGMEVTLRTYPGALFFAWDGYHHHVGANTWAGRRKAPPGATGLLGYTLLAPPGVPPGEHPDPTGALARVLTEPPPSP”, for which the “soluble on expression in E. coli” value is “soluble”.
For the sequence “MGSDKIHHHHHHMDTAGMISAVQEILANRSLDGWEITAASSHILSIEVKEQKVDTFKCSAPLGVSVRVLKNGGMGFSFSTSMAPEDLARMVDNALVGAESQTPDADHGFPDPPAVYPDVPGLFDDGLAAVAEEAKIAVALDLERLTLAADPRVRKVRKATYGDSMVETMVVNSRGVSCRYRGTSVSASVTAVAEENGQSQMGWDFDFSSRFDGISVERIVAGAVAKATGLLGAATVPTMRCPAVLDTYVATEILEVLAPAFLAESVQKGKSLLAGKRGEMIVAPLLTIRDDGTLPGGMGTAPFDAEGVPKRNTVLVQNGRLDSYLYDTLRARKEGVAPTGNAIRSGIKSPPHMGVSNLFIENGTEAPEALLAGITRGVLLTEVMGMHTANTISGDFSVGAAGFLVEDGRVTRPVKGIAIAGNILELFRGVEAVGNDLRFYGTVGSPSLRIAALDVSGE”, the “soluble on expression in E. coli” value is recorded as “not soluble”.
The same measure for “MHHHHHHVMIMKAFISENVRGIYAFDENGNLIEKRYFTDKPEKVLDQLLKGEITKDLEELLNSLKEKGYDEFVFEHPELSRRAKELGFSATTEFPNIAGERLRSNPEEFLGENWFEEYYKVGVALTRMRIQEQSGARDKMVIQAIEALDDVDKVINLLVARLREWYSLHFPELDELLPKHPQYVAFVKTVGHRDNINEEVLRELGLSEEKIKKILEAKEKTMGAWMDQTDIEVVRQLAEEIDRLYQLRKKLEDYIDRAMDDVAPNLKALVGAKLAARLISLAGGLRELAMMPSSTIQVLGAEKALFRHLRTGAKPPKHGVIYQYPAINRSPWWQRGKIARALAGKLAIAARVDYFSGEYIAEELKKELEARIREIK”: “soluble”.
The same measure for “HMSMYAVNAGIAKTTVQILVDHIAHSGWLDEAASAVLLDIVRTPISPELKPVGQDGNISQKTEDLVGPYELHDFFIYHFLHNEYKPSKIYYLAGVAFKGIYTKAEIKKWMMVFFRRFFAQQYKRNCMPDGPKVSCISLSPRGAWRMASDASSALWLDEIAKFETD”: “not soluble”.
Turning to “NSAHQFHNQQEGEHYILAGYPWFKCRARDMFISLPGLTLALEEVDQFEDVMKTAEKAIRSFINDEPAGYKIYEMEHPDVLLWAVWALQQYAKETSREQCRQKYGELLKDIIEFIRQRKHENLFLHENGLLYANGTDKAITWMNSTVNGHPVIPRTGYIVEFNALWYNALRFVADLVREDGNVLLADALDAQAEVTGKSFIEVFRNEYGYLLDYVDGNMMDWSVRPNMIFAVAFDYSPLDRAQKKQVLDIATKELLTPKGLRTLSPKSGGYNPNYVGPQIQRDYAYHQGTAWPWLMGFYMEAYLRIYKMSGLSFIERQLIGLEDELTIHCISSLPELFDGNPPFKGRGAVSFAMNVAEVLRILKLLSKYY”, the “soluble on expression in E. coli” value was “not soluble”.
With “MSNSEPSTSTPSGKTKKRGKKCETSMGKSKKSKNLPRFVKIQPIFSSEKIKETVCEQGIEECKRMLKGHFNAIKDDYDIRVKDELDTDIKDWLKDASSSVNEYRRRLQENLGEGRTIAKFSFKNCEKYEENDYKVSDSTVTWIKPDRTEEGDLMKKFRAPCSRIEVGDISPPMIYWVPIEQSVATPDQLRLTHMPYFGDGIDDGNIYEHLIDMFPDGIHGFSDNWSYVNDWILYKLCRAALKDYQGSPDVFYYTLYRLWPNKSSQREFSSAFPVLCENFAEKGFDPSSLEPWKKTKIAEGAQNLRNPTCYACLAYTCAIHGFKAEIPIEFPNGEFYNAMLPLPNNPENDGKMCSGNCWKSVTMKEVSEVLVPDSEEILQKEVKIYFMKSRIAKMPIEDGALIVNIYVFNTYIPFCEFVKKYVDEDDEESKIRSCRDAYHLMMSMAENVSARRLKMGQPSNRLSIKDRVNNFRRNQLSQEKAKRKLRHDSLRIQALRDGLDAEKLIREDDMRDSQRNSEKVRMTAVTPITACRHAGPCNATAENCACRENGVCSYMCKCDINCSQRFPGCNCAAGQCYTKACQCYRANWECNPMTCNMCKCDAIDSNIIKCRNFGMTRMIQKRTYCGPSKIAGNGLFLLEPAEKDEFITEYTGERISDDEAERRGAIYDRYQCSYIFNIETGGAIDSYKIGNLARFANHDSKNPTCYARTMVVAGEHRIGFYAKRRLEISEELTFDYSYSGEHQIAFRMVQTKERSEKPSRPKSQKLSKPMTSE” the entry was “not soluble”; with “MLIVRPSGRAAEDVETCLNAGWRAEVLSPVEIEADAAGLELLSEQYARADAVFWVSPTAVETAVPYLNLSDGIKAQIAVGQGSRRALERCLVRTVIAPDDGNDSEAVLRLPVWNSLPEGARVLFVRGHGGRDFLMNALQEKGFRTEVAEVYFRRHKPLNFQNFQTENIAAAYITSTELVRLLFGQLPPQFSRFFKSLLYFTHHPRIAEALKREGVCSVETVPTLEAALSHSSISVSDGMVFPGTSN”, “not soluble”.
With “ELYGASPDIDLGTGPTPTLGPVTPEICKQDIVFDGIAQIRGEIFFFKDRFIWRTVTPRDKPMGPLLVATFWPELPEKIDAVYEAPQEEKAVFFAGNEYWIYSASTLERGYPKPLTSLGLPPDVQRVDAAFNWSKNKKTYIFAGDKFWRYNEVKKKMDPGFPKLIADAWNAIPDNLDAVVDLQGGGHSYFFKGAYYLKLENQSLKSVKFGSIKSDWLGC” the entry was “soluble”.
As to “AITGATGHLGQQIVAAMRPLVATTELYLGVHTLSKAQVYQQQGLHIAAIDYQQPEQLRAFFQDSDVLIYIPSKSHDSYSRVQEFENVLAAVQQANVHHFLVMGFIADQVNNPFALSAFYGYVPRRLAGSDINYTIVRNALYADPLVPYLPELIERHNVVYPMADQALSFISQADSAAAFAKVATTPDLLQRGRI”, the “soluble on expression in E. coli” value is “not soluble”.
With “MTTPNTQLWEVFIRSRNGLAHKHVGSLHAADATLALQAARDIYTRRGEGLSIWVVPSNAITASDPAEAGMLFEPAESKIYRHPTFYEVPDEVGHM” the entry was “not soluble”.
The same measure for “MGSDKIHHHHHHMNPCGFNKCYIQPSADLSVSLQIVSGKSRASISEIGSHMDSLQIDGLDILLHSYDGSPTHFGSAFLFPYANRVKDARYVMDGVEYRLPNNEGKNSIHGLVLDKNFSVISREEESITMETSIAGGEAYPSDLSVRISHSVDETSYRCEVTVINKGVKRSPIAAGFHPYFVYKNKWAIIKPETAWIMEYDGPFPTGKMDRMTFGDISYLNAYDNQFFADSDIIVDVGYSRLKITRNNMPFFVIYNGRYSAGSSVAIEPMMSAVDSFNNGIGLRLLNPGDTMKFGYSIDIV”: “not soluble”.
The same measure for “MFRISLEEFEGPLDLLLFFIKRDELDIYNIPISKITGDFIAYIHAMRRLNLEVAAEFIYMASMLMSIKARMLLPRAEPVDGEADEFDPRTELVQRLLEYKRIKEGASELELMALDRERMFPRGYFEELEPAVIDEMDEPVNRPTLYHLMLAYQSVLDNMPKVRTQNVTDAPVTVEEQSALIMARLGERLQVSFTSLFQEFREAIVIVVTFLAVLELCRNRKISVIVKEGVNDFWISQRDHAE”: “soluble”.
On to “MSLTREAYHRLTPLPHPGGRLFIKPGARGYRDPVHDLLQKTVEPFGERALDLNPGVGWGSLPLEGRMAVERLETSRAAFRCLTASGLQARLALPWEAAAGAYDLVVLALPAGRGTAYVQASLVAAARALRMGGRLYLAGDKNKGFERYFKEARALLGYGVVVRREGPYRVALLEKEKEAPPLPSLWRAFSARILGAEYTFHHLPGVFSAGKVDPASLLLLEALQERLGPEGVRGRQVLDLGAGYGALTLPLARMGAEVVGVEDDLASVLSLQKGLEANALKAQALHSDVDEALTEEARFDIIVTNPPFHVGGAVILDVAQAFVNVAAARLRPGGVFFLVSNPFLKYEPLLEEKFGAFQTLKVAEYKVLFAEKRGRHHHHHH”, for which the “soluble on expression in E. coli” value is given as “soluble”.
The same measure for “SLSESFPLLEKYRIGKVIGDGNFAVVKECVDRYTGKEFALKIIDKAKCCGKEHLIENEVSILRRVKHPNIIMLVEEMETATDLFLVMELVKGGDLFDAITSSTKYTERDGSAMVYNLANALRYLHSLSIVHRDIKPENLLVCEYPDGTKSLKLGDFGLATVVEGPLYTVCGTPTYVAPEIIAETGYGLKVDVWAAGVITYILLCGFPPFRSENNLQEDLFDQILAGKLEFPAPYWDNITDSAKELISQMLQVNVEARCTAGEILSHPWVSDDASQENNMQAEVTGKLKQHFNNALPKQNSTTTGVSVIMNTALDK”: “soluble”.
The same measure for “MGSDKIHHHHHHMGLGHEQGFGAPCLKCKENCEGFELHFWRKICRNCKCGQEEHDVLLSNEEDRKVGRLFEDTKYTTLIAKLKSDGIPMYKRNVMILTNPVAAKKNVSINTVTYEWAPPVQNQALARQYMQMLPKEKQPVAGSEGAQYRKKQLAKQLPAHDQDPSKCHELSPKEVKEMEQFVKKYKSEALGVGDVKFPSEMNAQGDKVHNPAGDRHAPAAVASKDKSAESKKTQYSCYCCKHTMNEGEPAIYAERAGYDKLWHPACFICSTCGELLVDMIYFWKNGKLYCGRHYCDSEKPRCAGCDELIFSNEYTQAENQNWHLKHFCCFDCDHILAGKIYVMVTDKPVCKPCYVKNHAVVCQGCHNAIDPEVQRVTYNNFSWHASTECFLCSCCSKCLIGQKFMPVEGMVFCSVECKRMMS”: “soluble”; for “MPFKLSPDCIVLAEPEKLHYPGDTVSGHIVLKFEKFSTCRAITLTVKGKAETGWDNVTKVGQWTYFNESGVLWKAEMSENRIEPGTHRIPFDYTVPENIPQSFEGPFGFIRFYIKVHMDRPHALDQCVKKEFLVTQKPTVVSKKHLGPEHIIRYCQKLNCNRGEIYFEAQLSNRIIFFDDPISLIIKIKNCSSRTIKKISLEAFQRIEYYSTTSACRKTHSVLIGKTGKSELKIRNDEIAISTFSMKFKEPATPSFASELIQVSYVLLVNLFTDGFWAAPLVFPVEFEVGKKSDVGTEDEETCDGLINFDED”: “not soluble”; for “MGSDKIHHHHHHMLTTRKALYYLDKGKTKEAIHLLETCWNQKVTAENKRDIFTATVLLSDVLYQSGERFPEIYQKLMSILEEMQDLEAVDFEREKAKQIFAELDEYFSEVGTFFQGHSLAELWLKFDSENDYKDVYPTPQRVAAIEAELGYKLPKSYIYLMRHTQNGGIVSTGSVPTTEPSSWSENCVAITGIMGIGDCGVSTLNGMHNTNFWTEEWGYPDVGLAIADCPSAGHDMVFLDYRNCGKTGEPAVVHIDQEGDYKILKLADNFEEFILSLYREEY”: “not soluble”.
The same measure for “MATKPQDANTTSREAITSKADSPPRPTALIFDSGVGGLSVYQEIRQLLPDLHYIYAFDNVAFPYGEKSGEFIVERVLEIVTAVQQRHPLAIVVIACNTASTVSLPALRERFAFPVVGVVPAIKPAVRLTRNGVVGLLATRATVHASYTLDLIARFATDCKIELLGSSELVEVAETKLHGGVVPLEVLKKILHPWLSMREPPDTIVLGCTHFPLLTEELAQVLPEGTRMVDSGAAIARRTAWLISSQENVISSQDENIAYCMALDEDTDALLPVLQSYGFPKLQKLPI”: “not soluble”; for “MTALEVLGGWPVPAAAAAVIGPAGVLATHGDTARVFALASVTKPLVARAAQVAVEEGVVNLDTPAGPPGSTVRHLLAHTSGLAMHSDQALARPGTRRMYSNYGFTVLAESVQRESGIEFGRYLTEAVCEPLGMVTTRLDGGPAAAGFGATSTVADLAVFAGDLLRPSTVSAQMHADATTVQFPGLDGVLPGYGVQRPNDWGLGFEIRNSKSPHWTGECNSTRTFGHFGQSGGFIWVDPKADLALVVLTARDFGDWALDLWPAISDAVLAEYTLEHHHHHH”: “soluble”.
